{"source": "patent US20080182332", "assay_in_all_cases": "cell_activity", "key": {"[1]": {"system": "IL-1-FokI C3H F4 HTKIC (pDAB4342) F4 zinc coordinating region HTKIC (engineered)", "conditions": "pDAB4342, tobacco BY2-380"}, "[2]": {"system": "IL-1-FokI C2H2 (pDAB4341/pDAB4323) (engineered)", "conditions": "pDAB4341, tobacco BY2-380; pDAB4323 (non-plant codon FokI) 5.53"}, "[3]": {"system": "IL-1-FokI C3H F4 HTKRCGGG (pDAB4343) F4 zinc coordinating region HTKRCGGG (engineered)", "conditions": "pDAB4343, tobacco BY2-380"}, "[4]": {"system": "IL-1-FokI C3H F2 HIRTGC (pDAB4346/pDAB4356) F2 zinc coordinating region HIRTGC (engineered)", "conditions": "pDAB4346, tobacco BY2-380 intrachromosomal recombination; pDAB4356 also active in interchromosomal HR"}, "[5]": {"system": "IL-1-FokI C3H F4 HAQRCG (pDAB4344) F4 zinc coordinating region HAQRCG (engineered)", "conditions": "pDAB4344, tobacco BY2-380"}}}
{"substance": "IL-1-L0-FokI site, 4 tandem repeats", "values": [{"measurement": "activity (GFP expression)", "setting": "[1]", "result": 0.25}, {"measurement": "activity (GFP expression)", "setting": "[2]", "result": 6.37}, {"measurement": "activity (GFP expression)", "setting": "[3]", "result": 7.57}, {"measurement": "activity (GFP expression)", "setting": "[4]", "result": 9.5}, {"measurement": "activity (GFP expression)", "setting": "[5]", "result": 4.39}]}
